B1: (Gal4 activation domain)-hMlh1 fusion (pACTII-hMLH1) (other, not shown: large carriers)
chain: MSFVAGVIRRLDETVVNRIAAGEVIQRPANAIKEMIENCLDAKSTSIQVIVKEGGLKLIQIQDNGTGIRKEDLDIVCERFTTSKLQSFEDLASISTYGFRGEALASISHVAHVTITTKTADGKCAYRASYSDGKLKAPPKPCAGNQGTQITVEDLFYNIATRRKALKNPSEEYGKILEVVGRYSVHNAGISFSVKKQGETVADVRTLPNASTVDNIRSIFGNAVSRELIEIGCEDKTLAFKMNGYISNANYSVKKCIFLLFINHRLVESTSLRKAIETVYAAYLPKNTHPFLYLSLEISPQNVDVNVHPTKHEVHFLHEESILERVQQHIESKLLGSNSSRMYFTQTLLPGLAGPSGEMVKSTTSLTSSSTSGSSDKVYAHQMVRTDSREQKLDAFLQPLSKPLSSQPQAIVTEDKTDISSGRARQQDEEMLELPAPAEVAAKNQSLEGDTTKGTSEMSEKRGPTSSNPRKRHREDSDVEMVEDDSRKEMTAACTPRRRIINLTSVLSLQEEINEQGHEVLREMLHNHSFVGCVNPQWALAQHQTKLYLLNTTKLSEELFYQILIYDFANFGVLRLSEPAPLFDLAMLALDSPESGWTEEDGPKEGLAEYIVEFLKKKAEMLADYFSLEIDEEGNLIGLPLLIDNYVPPLEGLPIFILRLATEVNWDEEKECFESLSKECAMFYSIRKQYISEESTLSGQQSEVPGSIPNSWKWTVEHIVYKALRSHILPPKHFTEDGNILQLANLPDLYKVFERC
B2: hMlh1 protein overproduced in E. coli from pET-hMLH1 constructs (used as clarified bacterial extract) (other)
chain: B1 chain
notes: The protein was not purified and was used as clarified bacterial extract; also called hMLH1 gene product

Columns and labels:
[1] = target: (Gal4 binding domain)-hMsh2 fusion (pAS1-hMSH2) (human, UniProt P04386 1-147 (Saccharomyces cerevisiae entry), limits assumed); assay: cell-based or functional assay
[2] = target: T1, hMsh2 protein with a hexa-HIS and factor Xa leader peptide at the N-terminus (overproduced in E. coli from a … (human, UniProt P43246 1-934)); assay: gel-shift (supershift) of hMsh2 bound to a 32P-labelled 39-bp GT-mismatch duplex, with E. coli extract containing hMlh1
T1 construct: The leader peptide was not cleaved; The preparation was more than 50% pure; also called human Msh2; MSH2hu protein; not shown: hexa-HIS and factor Xa leader peptide from the pET vector derivative (Invitrogen)
Description: Mismatch binding by human mismatch repair proteins was studied using a gel-shift binding assay. Briefly, protein fractions are incubated with a ^32P-labelled 39-basepair oligonucleotide duplex that was designed to minimize intramolecular interactions (Oligo Designs), and also contained a GT mismatch at position 20. Incubations were done for 10 minutes at 23° C. in 20 mM Tris (pH 7.5), 50 mM KCl, 1 mM DTT, and 0.1 mM EDTA to allow formation of protein-DNA complexes. Several different competitor nucleic acids (e.g. poly dI-dC, an otherwise identical 39-mer that lacked the mismatch, and/or unlabelled mismatched substrate) were added to minimize nonspecific binding. Reactions were then loaded onto a 6% acrylamide gel in TBE, and were electrophoresed.

Row | Binder | β-galactosidase activity (GAL4 promoter-β-galactosidase reporter, yeast Two-Hybrid) [1] [fold] | binding result [2]
1 | B1 | ~100 | 
2 | B2 |  | binds
